B1: yeast-displayed wild-type human IL-11 [human] / soluble human IL-11 receptor extracellular domain, his-tagged [human] (parent complex)
chain 1: PGPPPGPPRVSPDPRAELDSTVLLTRSLLADTRQLAAQLRDKFPADGDHNLDSLPTLAMSAGALGALQLPGVLTRLRADLLSYLRHVQWLRRAGGSSLKTLEPELGTLQARLDRLLRRLQLLMSRLALPQPPPDPPAPPLAPPSSAWGGIRAAHAILGGLHLTLDWAVRGLLLLKTRL
chain 2: SPCPQAWGPPGVQYGQPGRSVKLCCPGVTAGDPVSWFRDGEPKLLQGPDSGLGHELVLAQADSTDEGTYICQTLDGALGGTVTLQLGYPPARPVVSCQAADYENFSCTWSPSQISGLPTRYLTSYRKKTVLGADSQRRSPSTGPWPCPQDPLGAARCVVHGAEFWSQYRINVTEVNPLGASTRLLDVSLQSILRPDPPQGLRVESVPGYPRRLRASWTYPASWPCQPHFLLKFRLQYRPAQHPAWSTVEPAGLEEVITDAVAGLPHAVRVSARDFLDAGTWSTWSPEAWGTPSTGTIPKEIPAWGQLHTQPEVEPQVDSPAPPRPSLQPHPRLLDHRDSVEQVAVLA

Variants of B1 are the subject of the assay. The experiment in a line: yeast display titration (flow cytometry); parent: 8.2 nM.
As to chain 1 PGPPPGPPRVSPDPRAELDSIVLLTRSLLADTRQLAAQLRDKFPADGDHNLDSLPTPAMSARALGALQLPGVLTRLRADLLSYLRHVQWLRRAGGSSLKTLEPELGTLQARLDRLLRRLQLLMSRLALPQPPPDPPAPPLAPPSSAWGGIRAAHAILGGLHLTLDWAVRGLLLLKTRL, the dissociation constant (Kd) is 220 pM.

Take chain 1 PGPPPGPPRVSPDPRAELGSIVLLTRSLLADTRQLAAQLRDKFPADGDHNLDSLPTPAMSARALGALQLPDVLTRLRADLLSYLRHVQWLRRAGGSSLKTLEPELGTLQARLDRLLRRLQLLMSRLALPQPPPDPPAPPLAPPSSAWGGIRAAHAILGGLHLTLDWAVRGLLLLKTRL: the Kd came out at 190 pM.

Turning to chain 1 PGPPPGPPRVSPDPRAELDSTVLLTRSLLADTRQLAAQLRDKFPADGDHNLDSLPTPAMSARALGALQLPGVLTRLRADLLSYLRHVQWLRRAGGSSLKTLEPELGTLQARLDRLLRRLQLLMSRLALPQPPPDPPAPPLAPPSSAWGGIRAAHAILGGLHLTLDWAVRGLLLLKTRL, the Kd came to 420 pM.

The record behind these values is article PMC10658506 (2023).
